US20120114652A1 (AbbVie / Abbott, published 2012)

Tests used:
[1] = molecular target: T1, glycosylated active human PAI-1 produced by CHO cells (human, UniProt P05121 24-402, N-glycosylated (CHO-produced)); test: SPR BIAcore T100, Antibody 08 on CM3 chip, PAI-1 as analyte, 37 C, n = 2
T1 construct: also called hu glyco; human glycosylated PAI-1

[2] = molecular target: T2, R271S stable mutant human PAI-1 (human, UniProt P05121 24-402); test: SPR BIAcore 2000, Antibody 08 on CM5 chip, PAI-1 protein as analyte
T2 construct: His-tagged, expressed in E. coli
T2 chain: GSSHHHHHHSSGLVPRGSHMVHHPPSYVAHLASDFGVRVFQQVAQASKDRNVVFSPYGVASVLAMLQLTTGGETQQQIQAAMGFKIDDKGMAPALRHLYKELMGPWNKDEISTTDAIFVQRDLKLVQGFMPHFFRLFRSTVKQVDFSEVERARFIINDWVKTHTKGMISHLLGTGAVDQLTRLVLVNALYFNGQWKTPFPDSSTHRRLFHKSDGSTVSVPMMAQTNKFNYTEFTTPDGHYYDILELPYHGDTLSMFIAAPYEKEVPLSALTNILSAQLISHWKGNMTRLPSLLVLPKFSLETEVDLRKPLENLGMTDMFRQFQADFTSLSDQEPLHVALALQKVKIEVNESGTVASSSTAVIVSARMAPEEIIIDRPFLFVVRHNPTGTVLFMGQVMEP

[3] = molecular target: T3, Y220S T267K stable mutant human PAI-1 (human, UniProt P05121 24-402); test: as above
T3 construct: His-tagged, expressed in E. coli
T3 chain: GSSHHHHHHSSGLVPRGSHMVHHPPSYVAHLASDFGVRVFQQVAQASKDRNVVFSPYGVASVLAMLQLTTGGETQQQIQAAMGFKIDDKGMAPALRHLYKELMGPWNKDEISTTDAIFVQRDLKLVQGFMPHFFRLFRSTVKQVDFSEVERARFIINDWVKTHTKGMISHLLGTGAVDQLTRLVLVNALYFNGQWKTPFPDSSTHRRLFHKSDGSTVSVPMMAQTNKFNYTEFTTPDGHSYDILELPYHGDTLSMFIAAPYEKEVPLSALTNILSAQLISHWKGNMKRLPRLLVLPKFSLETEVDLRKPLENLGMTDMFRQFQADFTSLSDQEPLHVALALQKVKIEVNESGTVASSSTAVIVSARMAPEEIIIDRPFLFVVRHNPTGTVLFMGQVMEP

cynomolgus PAI-1 [4] = molecular target: T4, cynomolgus PAI-1 (cynomolgus, UniProt P05121 24-402 (human entry), limits assumed); test: SPR BIAcore T100, Antibody 08 on CM3 chip, PAI-1 as analyte, 37 C, n = 1
T4 construct: bacterially derived, made in house; also called cyno PAI-1

rat PAI-1 [5] = molecular target: T5, rat PAI-1 (rat, UniProt P20961 24-402); test: SPR BIAcore T100, Antibody 08 on CM3 chip, PAI-1 as analyte, 25 C, n = 2
T5 construct: bought (US Biological)
T5 sequence: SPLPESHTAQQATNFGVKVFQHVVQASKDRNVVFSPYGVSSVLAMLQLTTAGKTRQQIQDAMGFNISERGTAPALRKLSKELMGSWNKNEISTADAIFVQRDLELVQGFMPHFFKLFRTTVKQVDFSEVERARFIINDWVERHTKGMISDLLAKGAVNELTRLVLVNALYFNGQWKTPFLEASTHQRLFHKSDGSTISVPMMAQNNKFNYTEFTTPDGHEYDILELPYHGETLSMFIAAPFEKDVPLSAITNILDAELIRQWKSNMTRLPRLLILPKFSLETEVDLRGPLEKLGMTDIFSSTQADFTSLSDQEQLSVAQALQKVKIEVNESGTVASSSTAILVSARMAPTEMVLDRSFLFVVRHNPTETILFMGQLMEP

cynomolgus PAI-1 [6] = molecular target: T4, cynomolgus PAI-1; test: SPR BIAcore T100, Antibody 08 on CM3 chip, PAI-1 as analyte, 25 C, n = 5
[7] = molecular target: T1, glycosylated active human PAI-1 …; test: as above
[8] = molecular target: T6, human PAI-1, active, wild-type, non-glycosylated (E. coli-derived) (human, UniProt P05121 24-402); test: SPR BIAcore, CAT-1001 amino-linked to CM3 chip, human wild-type PAI-1 as analyte, 1:1 Langmuir
T6 construct: bought (Molecular Innovations); also called wt; recombinant human PAI-1

PAI-2 = PAI-2 (UniProt P05120 1-415, limits assumed); test: competition ELISA (DELFIA): PICK167_A01-fgl IgG1 (CAT-1001) coated on the plate, biotinylated human PAI-1, titration of the unlabelled test antigen
α2-antiplasmin = molecular target: T7, α2-antiplasmin (UniProt P08697 40-491, limits assumed); test: as above
T7 sequence (looked up): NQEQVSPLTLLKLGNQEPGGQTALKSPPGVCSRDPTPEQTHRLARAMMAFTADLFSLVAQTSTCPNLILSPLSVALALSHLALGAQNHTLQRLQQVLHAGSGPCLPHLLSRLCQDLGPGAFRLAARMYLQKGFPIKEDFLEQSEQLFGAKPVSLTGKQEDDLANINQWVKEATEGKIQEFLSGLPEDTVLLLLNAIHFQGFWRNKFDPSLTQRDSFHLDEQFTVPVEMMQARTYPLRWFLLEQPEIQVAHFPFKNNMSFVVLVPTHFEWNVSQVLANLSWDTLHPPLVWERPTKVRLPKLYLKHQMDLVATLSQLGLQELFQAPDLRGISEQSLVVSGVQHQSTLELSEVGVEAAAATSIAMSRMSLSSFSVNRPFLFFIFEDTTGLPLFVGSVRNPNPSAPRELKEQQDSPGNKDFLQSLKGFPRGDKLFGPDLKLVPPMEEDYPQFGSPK

α1-antitrypsin = molecular target: T8, α1-antitrypsin (UniProt P01009 25-418); test: as above
T8 construct: also called alpha-1-antitrypsin

PAI-3 = molecular target: T9, PAI-3 (UniProt P05154 26-406, limits assumed); test: as above
T9 sequence (looked up): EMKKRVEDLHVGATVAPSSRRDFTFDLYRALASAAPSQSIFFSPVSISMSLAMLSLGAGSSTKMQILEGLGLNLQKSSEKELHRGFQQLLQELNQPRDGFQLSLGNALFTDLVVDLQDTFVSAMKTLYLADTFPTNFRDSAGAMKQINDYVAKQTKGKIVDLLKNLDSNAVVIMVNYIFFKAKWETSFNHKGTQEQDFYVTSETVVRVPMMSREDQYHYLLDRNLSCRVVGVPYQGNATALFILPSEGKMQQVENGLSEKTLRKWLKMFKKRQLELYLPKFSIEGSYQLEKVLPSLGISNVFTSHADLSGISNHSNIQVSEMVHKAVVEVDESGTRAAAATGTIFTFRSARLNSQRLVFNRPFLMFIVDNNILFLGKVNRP

α1-antichymotrypsin = molecular target: T10, α1-antichymotrypsin (UniProt P01011 24-423); test: as above
T10 sequence (looked up): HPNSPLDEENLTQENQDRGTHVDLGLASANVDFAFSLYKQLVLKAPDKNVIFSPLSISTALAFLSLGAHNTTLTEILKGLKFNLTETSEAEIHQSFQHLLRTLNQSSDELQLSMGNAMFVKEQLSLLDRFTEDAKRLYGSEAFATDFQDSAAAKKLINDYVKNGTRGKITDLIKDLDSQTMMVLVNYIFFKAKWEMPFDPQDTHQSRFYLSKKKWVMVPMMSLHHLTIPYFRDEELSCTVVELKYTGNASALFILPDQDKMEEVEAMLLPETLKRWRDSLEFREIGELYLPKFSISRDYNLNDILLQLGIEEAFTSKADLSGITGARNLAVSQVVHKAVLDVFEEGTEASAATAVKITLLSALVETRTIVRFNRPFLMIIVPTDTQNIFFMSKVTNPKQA

antithrombin III = antithrombin III (UniProt P01008 33-464); test: as above
cynomolgus PAI-1 [9] = molecular target: T4, cynomolgus PAI-1; test: cell-based or functional assay
rat PAI-1 [10] = molecular target: T5, rat PAI-1; test: cell-based or functional assay
[11] = molecular target: T6, human PAI-1, active, wild-type, …; test: cell-based or functional assay

B1: Antibody 08 (as coupled to the BIAcore chip; format not stated) (antibody, V domains shown)
VH: QVQLVQSGAEVKKPGSSVKVSCKASGGTFSSYAISWVRQAPGQGLEWMGGIIPTFGTANYAQKFQGRVTITADESTSTAYMELSSLRSEDTAVYYCARERRQWLEGHFDYWGRGTLVTVSS
VL: DIQMTQSPSTLSASVGDRVTITCRASEGIYHNLAWYQQKPGKAPKLLIYKASSLASGVPSRFSGSRSGTEFTLTISSLQPDDFATYYCQQYSNYPLTFGGGTKVEIK
notes: also called candidate antibody (Antibody 08)
Kd [1]: 0.007 nM
Kd [2]: 7.4 nM
Kd [3]: 0.14 nM
Kd (cynomolgus PAI-1 [4]): 0.013 nM
Kd (rat PAI-1 [5]): 0.105 nM
Kd (cynomolgus PAI-1 [6]): 0.013 nM
Kd [7]: 0.006 nM

B2: PICK167_A01-fgl IgG1 (CAT-1001) (antibody, V domains shown)
VH: QVQLVQSGAEVKKPGSSVKVSCKASGGTFSSYAISWVRQAPGQGLEWMGGIIPTFGTANYAQKFQGRVTITADESTSTAYMELSSLRSEDTAVYYCARERRQWLEGHFDYWGRGTLVTVSS
VL: DIQMTQSPSTLSASVGDRVTITCRASEGIYHNLAWYQQKPGKAPKLLIYKASSLASGVPSRFSGSRSGTEFTLTISSLQPDDFATYYCQQYSNYPLTFGGGTKVEIKR
notes: fully germlined variant, made as an IgG1 only; also called PICK67A01-fgl
Kd [8]: 0.016 nM
binding result (PAI-2): no binding (tested: log M about -6.3 (about 5e-7 M))
binding result (α2-antiplasmin): no binding (tested: log M about -6.3 (about 5e-7 M))
binding result (α1-antitrypsin): no binding (tested: log M about -6.3 (about 5e-7 M))
binding result (PAI-3): no binding (tested: log M about -6.3 (about 5e-7 M))
binding result (α1-antichymotrypsin): no binding (tested: log M about -6.3 (about 5e-7 M))
binding result (antithrombin III): no binding (tested: log M about -6.3 (about 5e-7 M))
IC50, PAI-1:tPA functional assay (cynomolgus PAI-1 [9]): 0.77 nM
IC50, HT1080 plasminogen activation assay (rat PAI-1 [10]): 22.8 nM
IC50, PAI-1:tPA functional assay (rat PAI-1 [10]): 3.07 nM
pIC50, HT1080 plasminogen activation assay (rat PAI-1 [10]): 7.64
IC50, HT1080 plasminogen activation assay [11]: 13.2 nM
IC50, PAI-1:tPA functional assay [11]: 1.65 nM
pIC50, HT1080 plasminogen activation assay [11]: 7.87
